Target: TGF-β type I receptor of Mv1Lu cells (mink)

## myristylated FKBP12
  TGFβ induced 3TP-Luc luciferase activity in Mv1Lu cells: 25 fold
